# Values quoted from earlier work in patent US5608039A, “Single chain B3 antibody fusion proteins and their uses” (The United States of America as represented by the …, priority 1994, dated 1997).
# Settings: in vivo
substance,measurement,value
PE,toxicity,highly toxic compounds that typically bring about death through liver toxicity
